Results: paper PMC12087824

Assays:
[1] = biological target: human IL-2 receptor chain beta (IL-2Rβ, CD122) (human) (UniProt P14784)
[2] = biological target: human IL-2 receptor chain beta (IL-2Rβ, CD122) (human) (UniProt P14784); assay: BLI; human IL-2Rβ immobilised; Neo-2/15 WT at 20–2.5 nM

Chain of human IL-2 receptor chain beta (IL-2Rβ, CD122) (human) (P14784 27-551): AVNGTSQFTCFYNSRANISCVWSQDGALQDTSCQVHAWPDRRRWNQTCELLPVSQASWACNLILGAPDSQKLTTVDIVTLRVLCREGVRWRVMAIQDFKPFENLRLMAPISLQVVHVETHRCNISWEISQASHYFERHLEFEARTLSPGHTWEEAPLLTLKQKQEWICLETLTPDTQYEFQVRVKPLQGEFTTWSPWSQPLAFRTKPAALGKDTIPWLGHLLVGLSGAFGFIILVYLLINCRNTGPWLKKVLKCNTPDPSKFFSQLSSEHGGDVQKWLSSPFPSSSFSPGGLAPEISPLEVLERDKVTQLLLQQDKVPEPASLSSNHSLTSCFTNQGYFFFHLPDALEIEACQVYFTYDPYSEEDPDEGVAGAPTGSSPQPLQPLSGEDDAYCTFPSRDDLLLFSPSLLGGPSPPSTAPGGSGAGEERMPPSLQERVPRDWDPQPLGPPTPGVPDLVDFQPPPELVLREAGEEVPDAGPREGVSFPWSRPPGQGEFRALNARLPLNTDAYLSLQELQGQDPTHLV

“neoleukin-2/15 (Neo-2/15) WT (designed binder)” gave an EC50 of STAT5 phosphorylation (pSTAT5) in purified splenic T cells of balb-c mice, ex vivo, serial dilutions [1] of 4.1 pM and a Kd [2] of 2.5 nM.
